Series [1] has as its system acidic tissues, tumors. Put plainly: In vivo fluorescence imaging of tissue and tumor targeting. Also on record: species or system mice and rats. An excerpt:
The pH-dependent interaction of pHLIP with membranes allows selectivity in the targeting of acidic (less than pH 7.0) diseased tissue. As noted above, acidity and hypoxia are considered as universal cancer biomarkers, and pHLIP is used as an acidity-targeting probe. Besides cancer, many other pathological states, such as inflammation, ischemia, stroke, arthritis and others are characterized by acidity in the extracellular space, which may broaden the potential applications of pHLIP. […] In addition to fluorescence imaging, PET (positron emission tomography) imaging of the acidic environment in human prostate tumors was performed using ^64Cu-DOTA conjugated to pHLIP. […] To manipulate the acidity of tissues, a buffer solution is administered to the subject systemically or local to the area in which a pH change is desired. In this manner, pHLIP-liposome-mediated delivery of a cargo compound is regulated, e.g., reduced or stopped. For example, administering bicarbonated water, which increases tissue pH, results in a reduction of tumor targeting by pHLIP.
The transmembrane (TM) part of exemplary pHLIP peptides contain two Asp residues. […] The replacement of the key Asp residues by Lys, Ala or Asn leads to the loss of peptide of pH-dependent membrane insertion, as measured in liposomes, red blood cells and confirmed by in vivo fluorescence imaging. […]

Series [2] can be described thus: Oligomeric state and aggregation of pHLIP in solution and on membranes. It is filed as physicochemical. The procedure: Poor solubility due to aggregation is a typical property of membrane peptides, which has complicated studies and applications. Isolated or purified pHLIP, as any membrane peptide, also has a tendency to aggregate, especially at high concentrations and/or low pH. However, in aqueous solution at neutral pH pHLIP exists as a monomer at concentrations less than 30 μg/mL (˜7.0 μM), as studied by fluorescence and CD spectroscopy measurements, size exclusion chromatography coupled with “on-line” laser light scattering, ultraviolet and refractive index detection (SEC-LS/UV/RI) and analytical ultracentrifugation experiments. When the solubility of the peptide is compromised as a result of mutations, the affinity of the peptide for a membrane and its overall conformational properties change. Thus, studies were undertaken to design pHLIP peptides that are optimized for clinical diagnostic and therapeutic use.
The oligomeric state of the peptide on the surface of a membrane (state II) and inserted into the lipid bilayer (state III) were evaluated by FRET performed with two different donor-acceptor probes attached to the N-terminus of the peptide.

The conditions of series [3]: in vivo. An excerpt: If the peptide sequence were made more hydrophobic, tighter binding to red blood cells and epithelial cells and more aggregation in solution, and slower clearance and reduced bioavailability would occur. Making the peptide less hydrophobic accelerates clearance and prevents the peptide from finding its targets. Therefore, fine tuning of the solubility is an important property to optimize pHLIP performance in vivo.

A short description of series [4]: pH-dependent membrane insertion of pHLIP peptides. It is filed as physicochemical. An excerpt: Peptide folding and membrane insertion are driven by a drop of pH from neutral or high (>7.4) to slightly acidic (7.0-6.5 and less) pHs. […] In contrast, all pore forming peptides first form aggregates on the membrane surface and then “fall” into membrane and form pores.
The transmembrane (TM) part of exemplary pHLIP peptides contain two Asp residues. At neutral pH these charged residues enhance peptide solubility and serve as anchors keeping the peptide at the surface of membrane, thereby preventing pHLIP partitioning into the hydrophobic membrane bilayer. A reduction of pH induces protonation of Asp residues, and as a result, the overall hydrophobicity of the peptide increases, enhancing the affinity of the peptide for the lipid bilayer core and triggering peptide folding and insertion. The replacement of the key Asp residues by Lys, Ala or Asn leads to the loss of peptide of pH-dependent membrane insertion, as measured in liposomes, red blood cells and confirmed by in vivo fluorescence imaging. […] The Ala substitutions yield a peptide that aggregates in solution (but de-aggregates when it becomes diluted in bodily fluids or tissue upon administration to a subject), while the Lys and Asn substitutions give peptides that are too polar to insert either at neutral or low pH. […]

The test system of series [5] is liposomes and cellular membranes. The format is cell-based. An excerpt:
Toxicity is one of the most critical issues in the selection of any delivery agent. For example, the use of pore-forming membrane peptides as delivery agents is complicated by the toxicity associated with the formation of pores in cellular membranes in vivo.

Values joined by “and” are separate entries in the source; they are usually repeats but may differ in a detail not shown here. Identical values can stand only once.

Turning to “K-pHLIP (ACEQNPIYWARYAKWLFTTPLLLLKLALLVDADEGTG; pHLIP variant)”, in series [1], the “targeting of acidic tissue and tumors” value is “does not demonstrate tumor targeting”.
As to “pHLIP: water-soluble polypeptide based on the bacteriorhodopsin C helix, e.g. SEQ ID NO: 4 (ACEQNPIYWARYADWLFTTPLLLLDLALLVDADET; pHLIP variant)”, the “oligomeric state in states I, II and III” value in series [2] is “monomer”. Also, the “concentration at which pHLIP exists as a monomer” value in series [2] (aqueous solution at neutral pH) is “less than 30 μg/mL and ~7.0 μM”. The “circulation in the blood” value in series [3] is listed as “several hours”. Moreover, the “targeting of acidic tissue and tumors” value in series [1] was “can target acidic tissues”. Besides, in series [4], the “apparent pK of insertion” value was 6.0. Also, in series [5], the cellular toxicity result is “no cellular toxicity” and the membrane leakage result is on record as “does not lead to membrane leakage”.

The record behind these values is patent US11857509B2, “Liposome compositions and methods of use thereof” (University of Rhode Island Board of Trustees, priority 2010, dated 2024).
